In the supplement of paper PMC9233669:
Variants at the floor of the assay were thinned out.

Experiments:
[1] = tested on: biotinyl-Trp-oxazolone; assay: self-aminoacylation, catalytic enhancement (BWO) (fold over background); higher = more active; k-Seq, kA / k0A0; sequences stand for … in GGGAAUGGAUCCACAUCUACGAAUUC…UUCACUGCAGACUUGACGAAGCUG
Procedure, shortened: (§1)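 The uncatalyzed rate is the low-activity peak of a bimodal Gaussian fit, and catalytic enhancement is median kA divided by it. The kA values came from pseudo-first-order fits, with 1000 bootstraps, of per-sequence fraction reacted measured by streptavidin capture, triplicate qPCR and Illumina sequencing. Mutagenized RNA pools with a 21-nt variable region (0.43 μM) were reacted with each biotinyl-aminoacyl-oxazolone at 2–1250 μM in 50 μL HEPES/NaCl/KCl/MgCl2/CaCl2 buffer with 5% acetonitrile, pH 6.9–7.0, for 90 minutes at room temperature.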

[2] = tested on: biotinyl-Val-oxazolone; assay: self-aminoacylation, catalytic enhancement (BVO) (fold over background); higher = more active; k-Seq, kA / k0A0; sequences stand for … in GGGAAUGGAUCCACAUCUACGAAUUC…UUCACUGCAGACUUGACGAAGCUG
Procedure, shortened: as §1

[3] = tested on: biotinyl-Ile-oxazolone; assay: self-aminoacylation, catalytic enhancement (BIO) (fold over background); higher = more active; k-Seq, kA / k0A0; sequences stand for … in GGGAAUGGAUCCACAUCUACGAAUUC…UUCACUGCAGACUUGACGAAGCUG
Procedure, shortened: as §1

[4] = tested on: biotinyl-Leu-oxazolone; assay: self-aminoacylation, catalytic enhancement (BLO) (fold over background); higher = more active; k-Seq, kA / k0A0; sequences stand for … in GGGAAUGGAUCCACAUCUACGAAUUC…UUCACUGCAGACUUGACGAAGCUG
Procedure, shortened: as §1

[5] = tested on: biotinyl-Met-oxazolone; assay: self-aminoacylation, catalytic enhancement (BMO) (fold over background); higher = more active; k-Seq, kA / k0A0; sequences stand for … in GGGAAUGGAUCCACAUCUACGAAUUC…UUCACUGCAGACUUGACGAAGCUG
Procedure, shortened: as §1

[6] = tested on: biotinyl-Phe-oxazolone; assay: self-aminoacylation, catalytic enhancement (BFO) (fold over background); higher = more active; k-Seq, kA / k0A0; sequences stand for … in GGGAAUGGAUCCACAUCUACGAAUUC…UUCACUGCAGACUUGACGAAGCUG
Procedure, shortened: as §1

Row | Sequence | self-aminoacylation [1] | self-aminoacylation [2] | self-aminoacylation [3] | self-aminoacylation [4] | self-aminoacylation [5] | self-aminoacylation [6]
1 | AUUCACCUAGGUCAUCCGCUG [Fam2.2 aminoacylation ribozyme variant] | 1.25 | 1.89 | 2.23 | 2.54 | 1.73 | 9.5
2 | AUUCACCUAGGUCAUCGAGUG [Fam2.2 aminoacylation ribozyme variant] | 8.05 | 8.76 | 10.8 | 19.3 | 14.3 | 35.7
3 | AUUCACCUAGGUCAUCGAUUG [Fam2.2 aminoacylation ribozyme variant] | 0.489 | 0.586 | 0.512 | 0.502 | 0.539 | 0.422
4 | AUUCACCUAGGUCAUCGCGCG [Fam2.2 aminoacylation ribozyme variant] | 3.32 | 5.13 | 5.42 | 7.72 | 5.13 | 22.4
5 | AUUCACCUAGGUCAUCGCGUA [Fam2.2 aminoacylation ribozyme variant] | 6.08 | 2.89 | 3.2 | 4.3 | 3.71 | 19.4
6 | AUUCACCUAGGUCAUCGGAAG [Fam2.2 aminoacylation ribozyme variant] | 0.705 | 0.782 | 0.622 | 0.541 | 0.562 | 0.472
7 | AUUCACCUAGGUCAUCGGAUG [Fam2.2 aminoacylation ribozyme variant] | 0.594 | 0.928 | 0.814 | 0.748 | 0.773 | 0.601
8 | AUUCACCUAGGUCAUCGGCGG [Fam2.2 aminoacylation ribozyme variant] | 2.74 | 3.27 | 3.21 | 5.14 | 4.11 | 17.9
9 | AUUCACCUAGGUCAUCGGCUG [Fam2.2 aminoacylation ribozyme variant] | 1.49 | 1.91 | 1.74 | 1.91 | 1.73 | 4.96
10 | AUUCACCUAGGUCAUCGGGAG [Fam2.2 aminoacylation ribozyme variant] | 1.39 | 1.44 | 1.43 | 1.86 | 1.58 | 1.65
11 | AUUCACCUAGGUCAUCGGGGA [Fam2.2 aminoacylation ribozyme variant] | 15.5 | 9.77 | 11.4 | 26 | 19.8 | 123
12 | AUUCACCUAGGUCAUCGGGUA [Fam2.2 aminoacylation ribozyme variant] | 49.5 | 32 | 37.2 | 101 | 71.8 | 605
13 | AUUCACCUAGGUCAUCGGGUG [Fam2.2 aminoacylation ribozyme variant] | 45.6 | 28.4 | 33.2 | 83.7 | 60.1 | 486
14 | AUUCACCUAGGUCAUCGGGUU [Fam2.2 aminoacylation ribozyme variant] | 13.8 | 9.43 | 10.8 | 26.4 | 18.4 | 118
15 | AUUCACCUAGGUCAUCGGUUC [Fam2.2 aminoacylation ribozyme variant] | 1.07 | 1.43 | 1.33 | 1.19 | 1.43 | 4.35
16 | AUUCACCUAGGUCAUCUGGUC [Fam2.2 aminoacylation ribozyme variant] | 0.378 | 0.686 | 0.522 | 0.596 | 0.623 | 0.411
17 | AUUCACCUAGGUCAUGCGGUG [Fam2.2 aminoacylation ribozyme variant] | 5.3 | 4.13 | 4.12 | 6.55 | 4.77 | 33.8
18 | AUUCACCUAGGUCAUGGGGGG [Fam2.2 aminoacylation ribozyme variant] | 2.23 | 2 | 2.55 | 3.18 | 2.72 | 1.11
19 | AUUCACCUAGGUCAUUCGGUG [Fam2.2 aminoacylation ribozyme variant] | 5.13 | 3.79 | 3.94 | 6.91 | 4.55 | 33.6
20 | AUUCACCUAGGUCAUUGGGGG [Fam2.2 aminoacylation ribozyme variant] | 3.03 | 2.06 | 2.45 | 2.77 | 2.67 | 1.27
21 | AUUCACCUAGGUCCGCGGGUG [Fam2.2 aminoacylation ribozyme variant] | 7.69 | 4.58 | 5.39 | 8.76 | 9.13 | 50.3
22 | AUUCACCUAGGUCCUCGCGUG [Fam2.2 aminoacylation ribozyme variant] | 6.43 | 4.96 | 4.84 | 10.4 | 7.68 | 51.4
23 | AUUCACCUAGGUCCUCGGCUG [Fam2.2 aminoacylation ribozyme variant] | 2.67 | 2.25 | 2.51 | 2.6 | 2.07 | 8.15
24 | AUUCACCUAGGUCGACGGGUG [Fam2.2 aminoacylation ribozyme variant] | 2.19 | 1.87 | 1.88 | 3.27 | 2.93 | 13.3
25 | AUUCACCUAGGUCGGCGGGUG [Fam2.2 aminoacylation ribozyme variant] | 6.02 | 5.49 | 4.39 | 8.86 | 6.63 | 41.6
26 | AUUCACCUAGGUCGUCGGAUG [Fam2.2 aminoacylation ribozyme variant] | 0.507 | 1.12 | 0.909 | 0.929 | 0.982 | 0.37

Row | Sequence | self-aminoacylation [1] | self-aminoacylation [2] | self-aminoacylation [3] | self-aminoacylation [4] | self-aminoacylation [5] | self-aminoacylation [6]
27 | AUUCACCUAGGUCUCCGGGUG [Fam2.2 aminoacylation ribozyme variant] | 8.48 | 4.49 | 4.71 | 9.35 | 7.84 | 47.5
28 | AUUCACCUAGGUCUUCGGGUG [Fam2.2 aminoacylation ribozyme variant] | 4.38 | 3.71 | 3.33 | 5.48 | 4.46 | 27.4
29 | AUUCACCUAGGUCUUCGGUUG [Fam2.2 aminoacylation ribozyme variant] | 1.72 | 1.41 | 1.55 | 1.75 | 1.76 | 9.48
30 | AUUCACCUAGGUCUUCUGGUG [Fam2.2 aminoacylation ribozyme variant] | 5.92 | 3.86 | 3.9 | 9.28 | 6.75 | 58.1
31 | AUUCACCUAGGUGAUCCGGUG [Fam2.2 aminoacylation ribozyme variant] | 3.31 | 3.03 | 3.26 | 4.06 | 5.12 | 22.1
32 | AUUCACCUAGGUGAUCUGGUG [Fam2.2 aminoacylation ribozyme variant] | 1.84 | 1.47 | 1.34 | 2.36 | 1.99 | 7.54
33 | AUUCACCUAGGUUAUAGGGUG [Fam2.2 aminoacylation ribozyme variant] | 3.5 | 2.11 | 2.23 | 4 | 3.65 | 14.1
34 | AUUCACCUAGGUUAUCCGGUG [Fam2.2 aminoacylation ribozyme variant] | 5.66 | 3.77 | 3.8 | 8.66 | 7.05 | 42.3
35 | AUUCACCUAGGUUAUCGAGUG [Fam2.2 aminoacylation ribozyme variant] | 1.89 | 1.42 | 1.4 | 2.35 | 1.97 | 2.32
36 | AUUCACCUAGGUUAUUGGGUG [Fam2.2 aminoacylation ribozyme variant] | 6.1 | 3.15 | 3.48 | 7.19 | 5.84 | 45
37 | AUUCACCUAGGUUCUCGGGUG [Fam2.2 aminoacylation ribozyme variant] | 2.44 | 2.68 | 2.63 | 3.18 | 2.88 | 20.4
38 | AUUCACCUAGUUCAGCGGGUG [Fam2.2 aminoacylation ribozyme variant] | 2.62 | 2.28 | 2.07 | 3.34 | 2.76 | 15.9
39 | AUUCACCUAGUUCAUCGGCUG [Fam2.2 aminoacylation ribozyme variant] | 1.03 | 1.55 | 1.36 | 1.57 | 1.27 | 4.73
40 | AUUCACCUAGUUCAUGGGGUG [Fam2.2 aminoacylation ribozyme variant] | 7.05 | 4.43 | 4.31 | 10.6 | 8.55 | 66
41 | AUUCACCUAUGACAUCGGGUG [Fam2.2 aminoacylation ribozyme variant] | 3.44 | 1.73 | 2.25 | 3.63 | 3.24 | 22.3
42 | AUUCACCUAUGUCAUCCGGUG [Fam2.2 aminoacylation ribozyme variant] | 5.69 | 3.51 | 3.78 | 7.19 | 5.26 | 37.6
43 | AUUCACCUAUGUCAUCGCGUG [Fam2.2 aminoacylation ribozyme variant] | 7.34 | 4.89 | 4.86 | 10.4 | 8.26 | 65.3
44 | AUUCACCUAUGUCAUCGGAUG [Fam2.2 aminoacylation ribozyme variant] | 0.502 | 0.758 | 0.826 | 0.606 | 0.581 | 0.61
45 | AUUCACCUAUGUCAUCGGGCG [Fam2.2 aminoacylation ribozyme variant] | 2.2 | 2.13 | 2.22 | 2.87 | 2.79 | 10.4
46 | AUUCACCUAUGUCAUCGGGUG [Fam2.2 aminoacylation ribozyme variant] | 5.45 | 3.48 | 3.61 | 7.41 | 5.41 | 36.7
47 | AUUCACCUCGGGCAUCGGGUG [Fam2.2 aminoacylation ribozyme variant] | 5.56 | 5.1 | 3.71 | 6.03 | 5.94 | 34.5
48 | AUUCACCUCGGUCAUCGGAUG [Fam2.2 aminoacylation ribozyme variant] | 0.751 | 1 | 0.927 | 0.794 | 0.789 | 0.352
49 | AUUCACCUCGGUCAUCGGGAG [Fam2.2 aminoacylation ribozyme variant] | 1.17 | 1.22 | 1.02 | 1.63 | 1.39 | 0.478
50 | AUUCACCUCGGUCAUCGGGUU [Fam2.2 aminoacylation ribozyme variant] | 2.53 | 2.41 | 2.15 | 2.47 | 2.44 | 13.3
51 | AUUCACCUCGGUCAUCGGUUG [Fam2.2 aminoacylation ribozyme variant] | 0.911 | 1.07 | 0.923 | 1.25 | 1.07 | 5.88
